Target: EcoRV restriction endonuclease (UniProt P04390 1-245)
Assay: competition

Chain of EcoRV restriction endonuclease (P04390 whole entry): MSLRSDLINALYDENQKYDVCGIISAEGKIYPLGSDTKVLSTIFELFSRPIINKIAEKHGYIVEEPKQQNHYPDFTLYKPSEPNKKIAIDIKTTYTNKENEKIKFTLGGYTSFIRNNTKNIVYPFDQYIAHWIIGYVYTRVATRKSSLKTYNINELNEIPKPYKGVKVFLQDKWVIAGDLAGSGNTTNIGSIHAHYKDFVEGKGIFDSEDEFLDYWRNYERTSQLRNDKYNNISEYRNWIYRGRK

B1: 30 bp specific site oligonucleotide (dsDNA)
DNA 1: CGGGCCTCTTGCGGGATATCGTCCATTCCG
DNA 2: CGGAATGGACGATATCCCGCAAGAGGCCCG
binding signal: < 9 % N1 complex remaining at 30-fold excess competitor

Reference: article PMC3156093
